Results from the supplement of paper PMC7125110.
± gives the standard error. Variants at the floor of the assay were thinned out.

B1: glmS ribozyme (parent)
chain: AUAAAAGCGCCAGAACUACAGAAAUGUAGUUGACGAGGAGGAGGUUUAUCGAAUUUUCGGCGGAUGCCUCCAAA

Tests used:
Conditions in all cases: with glucosamine-6-phosphate
glucosamine-6-phosphate [1] = variants of: B1; assay: self-cleavage kobs at 40 uM GlcN6P; higher = faster cleavage; RNA array
In short: (§1)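 Barcoded ribozyme variants, transcribed in situ by E. coli RNA polymerase on sequenced MiSeq chips, were followed via a hybridised Cy3 probe at 37 °C. Glucosamine-6-phosphate ranged from 40 μM to 10 mM in HEPES/KCl/Mg(OAc)2 buffer. kobs came from decay fits to per-tile medians, and kcat and KM from weighted Michaelis–Menten fits.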

glucosamine-6-phosphate [2] = variants of: B1; assay: self-cleavage kobs at 160 uM GlcN6P; higher = faster cleavage; RNA array
In short: as §1

glucosamine-6-phosphate [3] = variants of: B1; assay: self-cleavage kobs at 640 uM GlcN6P; higher = faster cleavage; RNA array
In short: as §1

glucosamine-6-phosphate [4] = variants of: B1; assay: self-cleavage kobs at 10000 uM GlcN6P; higher = faster cleavage; RNA array
In short: as §1

glucosamine-6-phosphate [5] = variants of: B1; assay: self-cleavage kobs at 2500 uM GlcN6P; higher = faster cleavage; RNA array
In short: as §1

Variant | self-cleavage kobs at 40 uM GlcN6P (glucosamine-6-phosphate [1]) [s⁻¹] | self-cleavage kobs at 160 uM GlcN6P (glucosamine-6-phosphate [2]) [s⁻¹] | self-cleavage kobs at 640 uM GlcN6P (glucosamine-6-phosphate [3]) [s⁻¹] | self-cleavage kobs at 10000 uM GlcN6P (glucosamine-6-phosphate [4]) [s⁻¹] | self-cleavage kobs at 2500 uM GlcN6P (glucosamine-6-phosphate [5]) [s⁻¹]
A48G U54A C61U | < 1e-05 | – | – | – | –
U56G G63U | < 1e-05 | < 1e-05 | < 1e-05 | < 1e-05 | –
U55C C68A | < 1e-05 | < 1e-05 | < 1e-05 | – | < 1e-05
U56C C61U | < 1e-05 | < 1e-05 | < 1e-05 | < 1e-05 | < 1e-05
U56C C61A | < 1e-05 | < 1e-05 | < 1e-05 | – | –
A53G G60C | < 1e-05 | – | – | < 1e-05 | –
A48C C70A | < 1e-05 | – | < 1e-05 | – | –
U65A C70U | 0.000142 ± 1.8e-05 | 0.00024 ± 4.6e-05 | 0.000871 ± 0.00012 | 0.00403 ± 0.0008 | 0.00273 ± 0.0009
U56G U65A | 3.91e-05 ± 7.3e-06 | – | 0.000245 ± 6.8e-05 | 0.0026 ± 0.0003 | 0.000827 ± 0.0002
U56G G59A C68A | < 1e-05 | – | < 1e-05 | < 1e-05 | –
U57G G60C | < 1e-05 | < 1e-05 | < 1e-05 | – | < 1e-05
A48C U49G G62A | < 1e-05 | – | – | – | –
G51C C58A C70A | < 1e-05 | – | – | – | –
C50U C58U | < 1e-05 | – | < 1e-05 | < 1e-05 | –
A52G G60A U65G C71U | < 1e-05 | – | – | – | –
A52G A53C U54A | < 1e-05 | – | – | – | –
G51C U55G | < 1e-05 | < 1e-05 | < 1e-05 | < 1e-05 | < 1e-05
A48C C50A | < 1e-05 | < 1e-05 | < 1e-05 | < 1e-05 | –
G60C C67A | < 1e-05 | – | – | – | < 1e-05
G60C C67G | < 1e-05 | < 1e-05 | < 1e-05 | < 1e-05 | –
U49A C58A | < 1e-05 | < 1e-05 | < 1e-05 | – | –
A52C G62C | < 1e-05 | < 1e-05 | < 1e-05 | < 1e-05 | < 1e-05
